One data set addresses T1, L-asparaginase (Escherichia coli, UniProt P00805).
T1 construct: purchased ProThera
Description: L-asparaginase enzyme activity (ammonium released, quantified with Nessler reagent). The data set is classed as biochemical. An excerpt:
(§1) Determining the enzyme activities: L-asparaginase catalyzes the deamidation of L-asparagine to form L-aspartic acid. In order to determine the enzyme activity, ammonium which was being released in this reaction was quantified using Neβler reagent. Streptokinase activates plasminogen. Plasminogen which has been activated in this way catalyzes the hydrolysis of the tripeptide derivative D-Val-Leu-Lys-para-nitroanilide (S-2251). In order to indirectly determine the activity of streptokinase, the quantity of nitroaniline which was released was quantified photometrically at 405 nm. The para-nitroanilide derivative α-benzoylarginine-para-nitroanilide was used to determine the peptidolytic activity of trypsin, by photometrically quantifying the nitroaniline which was released at 405 nm.
Substance 16 (0.5 eq./0.7 μl, 1 eq./1.4 μl, 2 eq./2.7 μl, 5 eq./6.8 μl, 10 eq./13.7 μl and, respectively, 20 eq./27.3 μl) dissolved in dimethyl sulfoxide (10 mg/ml) was added to 75 μl of a solution of L-asparaginase (0.5 mg/ml) in sodium carbonate buffer (pH 8.5 to 9.5) and the mixture was made up to a total volume of 150 μl using sodium carbonate buffer (pH 8.5 to 9.5). The reaction mixture was incubated at 25° C. and 300 rpm for 1 h on a thermomixer. Excess substance 16 was then removed by means of filtration in centrifuge filtration units (10 kDa cut-off) using water as rinsing liquid.

A further data set has as its system trypsin. Description: Peptidolytic activity of trypsin (α-benzoylarginine-para-nitroanilide, 405 nm). It is filed as biochemical.
Source text: as §1
Substance 16 (0.5 eq./1.5 μl, 1 eq./2.7 μl, 2 eq./5.4 μl, 5 eq./13.8 μl and, respectively, 10 eq./27.3 μl) dissolved in dimethyl sulfoxide (10 mg/ml) was added to 120 μl of a solution of trypsin (1.0 mg/ml) in sodium carbonate buffer (pH 8.5 to 9.5) and the mixture was made up to a total volume of 150 μl using sodium carbonate buffer (pH 8.5 to 9.5). The reaction mixture was incubated at 25° C. and 300 rpm for 1 h on a thermomixer. Excess substance 16 was then removed by means of filtration in centrifuge filtration units (10 kDa cut-off) using water as rinsing liquid.

B1: conjugate composed of L-asparaginase and substance 16: conjugate composed of the compound according to the invention substance 16 and L-asparaginase (conjugate, UniProt P00805 23-348, looked up)
L-asparaginase 2: LPNITILATGGTIAGGGDSATKSNYTVGKVGVENLVNAVPQLKDIANVKGEQVVNIGSQDMNDNVWLTLAKKINTDCDKTDGFVITHGTDTMEETAYFLDLTVKCDKPVVMVGAMRPSTSMSADGPFNLYNAVVTAADKASANRGVLVVMNDTVLDGRDVTKTNTTDVATFKSVNYGPLGYIHNGKIDYQRTPARKHTSDTPFDVSKLNELPKVGIVYNYANASDLPAKALVDAGYDGIVSAGVGNGNLYKSVFDTLATAAKTGTAVVRSSRVPTGATTQDAEVDDAKYGFVASGTLNPQKARVLLQLALTQTKDPQQIQQIFNQY
modifications: conjugated to substance 16
notes: conjugate composed of the compound according to the invention substance 16 and L-asparaginase
B1: the Residual activity with L-asparaginase (0.5 eqs. of 16 employed) came to 100%; with L-asparaginase (1 eq. of 16 employed), 100%; with L-asparaginase (2 eqs. of 16 employed), 92%; in the data set with L-asparaginase (5 eqs. of 16 employed), 87%; with L-asparaginase (10 eqs. of 16 employed, degree of modification 41%), 75%; with L-asparaginase (20 eqs. of 16 employed, degree of modification 43%) it was 60%.

B2: conjugate composed of trypsin and substance 16: conjugate composed of the compound according to the invention substance 16 and trypsin (conjugate, UniProt P00760 24-246, looked up)
Serine protease 1: IVGGYTCGANTVPYQVSLNSGYHFCGGSLINSQWVVSAAHCYKSGIQVRLGEDNINVVEGNEQFISASKSIVHPSYNSNTLNNDIMLIKLKSAASLNSRVASISLPTSCASAGTQCLISGWGNTKSSGTSYPDVLKCLKAPILSDSSCKSAYPGQITSNMFCAGYLEGGKDSCQGDSGGPVVCSGKLQGIVSWGSGCAQKNKPGVYTKVCNYVSWIKQTIASN
modifications: conjugated to substance 16
notes: conjugate composed of the compound according to the invention substance 16 and trypsin
Regarding B2, the Residual activity is recorded as 104% in the data set on trypsin (0.5 eqs. of 16 employed); 109% in the data set on trypsin (1 eq. of 16 employed); 119% in the data set with trypsin (2 eqs. of 16 employed); 136% in the data set with trypsin (5 eqs. of 16 employed); 137% in the data set with trypsin (10 eqs. of 16 employed, degree of modification 44%).
